Numbering of substitutions follows the chain as printed.
Experiments:
[1] = molecular target: T1, recombinant His-Strep tagged human Tyro3 extracellular domain (human, UniProt Q06418 41-429); experiment: BLI (Octet K2), 1:1 global fit; analyte concentration of this kobs not given
T1 construct: also called hTyro3 ECD; full Tyro3 ECD
T1 sequence: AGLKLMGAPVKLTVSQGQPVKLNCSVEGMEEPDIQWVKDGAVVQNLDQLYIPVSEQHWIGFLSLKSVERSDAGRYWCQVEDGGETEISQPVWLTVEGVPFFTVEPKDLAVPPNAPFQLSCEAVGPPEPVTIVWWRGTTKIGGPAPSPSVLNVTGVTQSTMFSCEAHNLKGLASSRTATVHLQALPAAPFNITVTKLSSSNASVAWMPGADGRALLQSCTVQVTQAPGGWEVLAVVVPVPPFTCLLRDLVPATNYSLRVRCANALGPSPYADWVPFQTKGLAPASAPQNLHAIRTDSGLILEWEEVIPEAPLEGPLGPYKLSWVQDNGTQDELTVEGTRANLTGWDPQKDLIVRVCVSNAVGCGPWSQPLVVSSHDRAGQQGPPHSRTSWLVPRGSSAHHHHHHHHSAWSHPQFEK
Experimental: (§1) Affinity determinations were performed using biolayer interferometry on an Octet K2 instrument (Pall/ForteBio) equipped with anti-Human Kinetics (AHC) disposable fiber-optic biosensor tips. All experiments were conducted at 30° C. in the recommended Fortebio running buffer (PBS with 0.1% (w/v) bovine serum albumin (BSA) and 0.02% (v/v) Tween_20). This buffer was also used for dilution of ligand (here the antibody) and of the analyte (here the extra cellular domain of human Tyro3 protein). Samples in a 96-well microplates (No. Black polypropylene low binding plates, Greiner Bio-One, Frickenhausen, Germany) were agitated at 1000 rpm. […] Between measurements, the anti-human Tyro3 biosensor surfaces were regenerated by exposing them to 3 cycles of 5 sec in 10 mM glycine, pH 1.5, followed by 5 sec in PBS. Association phase was measured for 300 seconds, dissociation phase depending on the interaction for 300 seconds depending on dissociation step. All measurements were corrected for baseline drift using the double reference substraction, that is to say by subtracting a control sensor without ligand exposed to each concentration of the extra cellular domain of human Tyro3 protein and a reference well with ligand submitted to running buffer only. Affinity, association (kon) and dissociation rate constants (koff) for each antibody were calculated applying a 1:1 interaction model fitting global, Rmax linked by sensor) on the ForteBio data analysis software 9.0.

[2] = molecular target: T1, recombinant His-Strep tagged human …; experiment: BLI (Octet K2), IgG on AHC tips, hTyro3 ECD analyte, 1:1 global fit; KD Error 9,68E-10
Experimental: as §1, with “All measurements were corrected for baseline drift using the double reference substraction, that is to say by subtracting a control sensor without ligand exposed to each concentration of the extra cellular domain of human Tyro3 protein and a reference well with ligand submitted to running buffer only.” left out

[3] = molecular target: T1, recombinant His-Strep tagged human …; experiment: BLI (Octet K2), IgG on AHC tips, hTyro3 ECD analyte, 1:1 global fit; kdis(1/s); kdis Error 6,46E-05
Experimental: as §1, with “All measurements were corrected for baseline drift using the double reference substraction, that is to say by subtracting a control sensor without ligand exposed to each concentration of the extra cellular domain of human Tyro3 protein and a reference well with ligand submitted to running buffer only.” left out

[4] = molecular target: T1, recombinant His-Strep tagged human …; experiment: BLI (Octet K2), IgG on AHC tips, hTyro3 ECD analyte, 1:1 global fit; kon Error 1,63E+03
Experimental: as §1, with “All measurements were corrected for baseline drift using the double reference substraction, that is to say by subtracting a control sensor without ligand exposed to each concentration of the extra cellular domain of human Tyro3 protein and a reference well with ligand submitted to running buffer only.” left out

[5] = molecular target: T2, cynomolgus Tyro3 ECD, His-Strep tagged; experiment: sandwich ELISA, Strep-tagged cynomolgus Tyro3 ECD captured on StrepMAB plate, IgG 3-fold from 3 µg/mL, anti-human IgG1-HRP
T2 construct: also called cyno TYRO3 ECD 8hisstrep
T2 extracellular domain: T1 sequence with V67A, I191V, A309G, R376H
Experimental: [The procedure below names another species; the source lists this species under the same test.] (§2) A double sandwich ELISA was developed. This assay consisted in measuring the binding of the anti-Tyro3 antibodies to be tested on immobilized strep-tagged entire human Tyro3 ECD captured directly on ELISA plate pre-coated with an anti-strep mAb (StrepMAB-Immo coated microplates from IBA biotech). Briefly, the 96 wells of StrepMAB-Immo coated microplate were washed three times with 300 μL of the PBS Tween 0.2% (referred as ELISA washing solution). The capture of an excess of purified strep tagged hTyro3 ECD protein was achieved by a one hour incubation at room temperature. In these experiments, 3 μg of purified protein diluted in PBS, BSA 1% (referred as ELISA diluent solution) were immobilized per well. The wells were washed three times with 300 μL of the washing solution. The non-specific binding sites on the well surface were blocked during 60 min at room temperature with 200 μL/well of blocking solution (PBS, BSA 3%). The wells were washed five times with 300 μL of the washing solution. Then, 100 μl (in duplicates) of the different concentrations of anti-Tyro3 antibodies to be tested diluted in ELISA diluent solution, were added per well and allowed to incubate during 1 hour at room temperature. An Irrelevant control IgG2656 was also added in this experiment. For anti-Tyro3 antibodies in the ScFv format, experiments were performed with 6 concentrations in duplicates (FIG. 3A). For anti-Tyro3 antibodies in the IgG format, experiments were performed with 9 concentrations in duplicates (FIG. 3B). […] For IgGs experiments, starting concentration for first dilution was 3 μg/ml and then dilutions of 3 fold in the ELISA diluent solution were performed. The wells were washed five times with 300 μL of the washing solution. […] The mix was allowed to incubated 60 min at room temperature.

[6] = molecular target: T3, recombinant human Tyro3 on transfected HEK293 cells (human, UniProt Q06418); experiment: flow cytometry, 1 µg IgG per 5E5 live HEK293 cells, PE anti-human lambda
T3 construct: membrane receptor on HEK293 cells; untransfected HEK293 cells (endogenous Tyro3) serve as comparison; also called Tyro3-transfected cells
T3 sequence (receptor, looked up): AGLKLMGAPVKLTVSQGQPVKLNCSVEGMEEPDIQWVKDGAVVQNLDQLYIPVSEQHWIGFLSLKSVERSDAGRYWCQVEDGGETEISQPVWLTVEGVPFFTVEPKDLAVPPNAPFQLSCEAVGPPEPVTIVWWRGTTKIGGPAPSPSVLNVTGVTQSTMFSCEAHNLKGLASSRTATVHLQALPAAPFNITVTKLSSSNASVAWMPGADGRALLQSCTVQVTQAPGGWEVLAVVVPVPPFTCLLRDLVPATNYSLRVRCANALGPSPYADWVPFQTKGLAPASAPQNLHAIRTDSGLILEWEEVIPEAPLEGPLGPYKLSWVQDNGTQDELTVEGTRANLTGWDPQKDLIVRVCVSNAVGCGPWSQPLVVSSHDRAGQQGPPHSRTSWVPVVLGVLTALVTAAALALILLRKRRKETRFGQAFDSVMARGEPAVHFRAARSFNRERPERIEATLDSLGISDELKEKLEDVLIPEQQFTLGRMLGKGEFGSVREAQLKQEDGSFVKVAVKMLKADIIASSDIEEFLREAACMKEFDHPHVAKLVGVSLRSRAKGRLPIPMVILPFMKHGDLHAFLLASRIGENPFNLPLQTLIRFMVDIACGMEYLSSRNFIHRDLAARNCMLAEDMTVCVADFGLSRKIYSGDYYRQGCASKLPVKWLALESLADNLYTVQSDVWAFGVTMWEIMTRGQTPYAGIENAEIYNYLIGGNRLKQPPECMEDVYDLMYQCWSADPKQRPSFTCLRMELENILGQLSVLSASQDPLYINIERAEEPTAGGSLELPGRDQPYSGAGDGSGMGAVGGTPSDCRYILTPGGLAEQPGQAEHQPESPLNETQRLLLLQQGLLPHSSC
Experimental: FIG. 9: Binding of anti-Tyro3 IgGs in living cells. HEK293 cells transfected to express recombinant human Tyro3 and HEK293 untransfected cells were stained with the Live-Dead NIR dye and either incubated with the TYRO 3-specific MAB859 monoclonal antibody, its isotype control (upper panels) or to individual anti-Tyro3 IgG (middle and bottom panels). IgG isotype control is IGX2656. […] Data were acquired using an ARIA III flow cytometer (Becton Dickinson) and analyzed using the Kaluza software (Beckman Coulter). Histograms shown are restricted to live cells that show a characteristic size and granulometry of HEK293 cells. Anti-Tyro3 IgG Tyro3-specific binding is shown by fluorescence intensity increase of Tyro3-transfected cells (black line) compared to untransfected cells (grey line).
To determine the individual IgG ability to further bind Tyro3-transfected cells than untransfected cells, 5^E5 untransfected and Tyro3-transfected cells were exposed to Live-Dead NIR dye (Life Technologies, #L10119) and 1 μg of each IgX in PBS for 30 minutes at 4° C. […] Cells were washed and PE fluorescence of at least 10,000 live cells was immediately recorded on an ARIA III flow cytometer (Beckton Dickinson) (middle and bottom panels of FIG. 9). IgG ability to bind overexpressed Tyro3 was determined with overlay histograms showing PE expression profile of untransfected and Tyro3-transfected cell. […]

[7] = molecular target: T1, recombinant His-Strep tagged human …; experiment: sandwich ELISA, Strep-tagged hTyro3 ECD captured on StrepMAB plate, IgG 3-fold from 3 µg/mL, anti-human IgG1-HRP
Experimental: as §2

[8] = molecular target: T1, recombinant His-Strep tagged human …; experiment: BLI (Octet K2), IgG on AHC tips, hTyro3 ECD analyte, 1:1 global fit; kdis(1/s); kdis Error 1,11E-04
Experimental: as §1, with “All measurements were corrected for baseline drift using the double reference substraction, that is to say by subtracting a control sensor without ligand exposed to each concentration of the extra cellular domain of human Tyro3 protein and a reference well with ligand submitted to running buffer only.” left out

[9] = molecular target: T1, recombinant His-Strep tagged human …; experiment: BLI (Octet K2), IgG on AHC tips, hTyro3 ECD analyte, 1:1 global fit; kon Error 9,23E+02
Experimental: as §1, with “All measurements were corrected for baseline drift using the double reference substraction, that is to say by subtracting a control sensor without ligand exposed to each concentration of the extra cellular domain of human Tyro3 protein and a reference well with ligand submitted to running buffer only.” left out

[10] = molecular target: T1, recombinant His-Strep tagged human …; experiment: BLI (Octet K2), IgG on AHC tips, hTyro3 ECD analyte, 1:1 global fit; KD Error 2,48E-09
Experimental: as §1, with “All measurements were corrected for baseline drift using the double reference substraction, that is to say by subtracting a control sensor without ligand exposed to each concentration of the extra cellular domain of human Tyro3 protein and a reference well with ligand submitted to running buffer only.” left out

[11] = molecular target: T1, recombinant His-Strep tagged human …; experiment: BLI (Octet K2), IgG on AHC tips, hTyro3 ECD analyte, 1:1 global fit; kon Error 1,05E+03
Experimental: as §1, with “All measurements were corrected for baseline drift using the double reference substraction, that is to say by subtracting a control sensor without ligand exposed to each concentration of the extra cellular domain of human Tyro3 protein and a reference well with ligand submitted to running buffer only.” left out

[12] = molecular target: T1, recombinant His-Strep tagged human …; experiment: BLI (Octet K2), IgG on AHC tips, hTyro3 ECD analyte, 1:1 global fit; KD Error 1,47E-09
Experimental: as §1, with “All measurements were corrected for baseline drift using the double reference substraction, that is to say by subtracting a control sensor without ligand exposed to each concentration of the extra cellular domain of human Tyro3 protein and a reference well with ligand submitted to running buffer only.” left out

[13] = molecular target: T1, recombinant His-Strep tagged human …; experiment: BLI (Octet K2), IgG on AHC tips, hTyro3 ECD analyte, 1:1 global fit; kdis(1/s); kdis Error 9,54E-05
Experimental: as §1, with “All measurements were corrected for baseline drift using the double reference substraction, that is to say by subtracting a control sensor without ligand exposed to each concentration of the extra cellular domain of human Tyro3 protein and a reference well with ligand submitted to running buffer only.” left out

B1: IgG2410 (antibody, V domains shown)
VH: EVQLVQSGADVKKPGASLTISCQASGYTFTDYWISWVRQKPGKGLEWMGQIVPRASRTNYGPSFQGHVTISADRSTATAYLQWRSLEASDTAMYYCVRPYFQTSGGTIPEYYQHWGPGTLVTVSS
VL: SYELTQPPSVSVSPGQTARITCSGDALPKKYAYWYQQKSGQAPVLVIYEDEKRASGIPERFSGSSSGTMATLTISGAQVEDEADYYCYSQERNGNYAVFGGGTKLTVL
notes: also called IGX2410
With B1 the kobs [1] was 0.0145 s⁻¹, the Kd [2] was 58.9 nM and the koff [3] was 0.00704 s⁻¹. The kon [4] was 120000 M⁻¹ s⁻¹ and the binding result [5] was “binds”.

B2: IgG2717 (antibody, V domains shown)
VH: EVQLVQSGADVKKPGASLTISCQASGYTFTDYWISWVRQKPGKGLEWMGEIFLPPSTTVYGPSFQGHVTISADRSTATAYLQWRSLEASDTAMYYCVRQTRLTSGGTIPEYYQHWGPGTLVTVSS
VL: B1 VL with E51N, A54G, Q90K, E91S, R92P, N93E, A97M
notes: also called IGX2717
B2: binds [6]; binds [5]; binds [7].

B3: IgG2412 (antibody, V domains shown)
VH: B1 VH with Q50R, V52R, R54L, A55L, R57H, N59M, P99S, Y100W, F101L, Q102A
VL: B1 VL with E51A, A54V, Q90A, E91S, R92A, A97R
notes: also called IGX2412
B3 showed a koff [8] of 0.0091 s⁻¹, a kobs [1] of 0.0175 s⁻¹ and a kon [9] of 67400 M⁻¹ s⁻¹. The Kd [10] was 135 nM and the binding result [5] was “binds”.

B4: IgG2413 (antibody, V domains shown)
VH: EVQLVQSGADVKKPGASLTISCQASGYTFTDYWISWVRQKPGKGLEWMGRIHTYQSSTRYGPSFQGHVTISADRSTATAYLQWRSLEASDTAMYYCVRHHSTTTANPYSSWGPGTLVTVSS
VL: B1 VL with E51D, A54L, Q90T, R92I
notes: also called IGX2413
With B4 the kon [11] was 97300 M⁻¹ s⁻¹, the Kd [12] was 101 nM and the kobs [1] was 0.0342 s⁻¹. For the same binder, the koff [13] was 0.00987 s⁻¹, the “EC50 (read off the curve)” value [5] was roughly 0.02 µg/mL and the “EC50 (read off the curve)” value [7] was roughly 0.02 µg/mL.

Reference: patent US20180105596A1 (ELSALYS BIOTECH, published 2018)
